Source: the DeepSol protein solubility set

Experiment: soluble on expression in E. coli; label from the status in PepcDB or PDB records

Sequence	soluble on expression in E. coli
LFDRVLVAYDFSKWADRALEYAKFVVKKTGGELHIIHVSEDGDKTADLRVMEEVIGAEGIEVHVHIESGTPHKAILAKREEINATTIFMGSRGAGSVMTMILGSTSESVIRRSPVPVFVCKRGDDE	not soluble
LKVLTNKASVMLFMKGNKQEAKCGFSKQILEILNSTGVEYETFDILEDEEVRQGLKTFSNWPTYPQLYVRGDLVGGLDIVKELKDNGELLPILKGE	soluble
LLEQESLPATGELYEHAACGLLVTLPNGTIERANLTFCRWLGLEREAVIGRRFQDLLNLAGKVFLQTHWAPLLQTQGSIAEVKVELIHADGRSVPMMLNAIRREYPSGFLHEVAVFLAEE	not soluble
LMKLYSLSVFYKGEPKAVLLKAAYDVSSFSFFQRSSVQEFMTFTSQLIVERSAKGSRASVKEQEYLCHVYVRSDSLAGVVIADSEYPSRVAFTLLEKVLDEFSKQVDRIDWPVGSPATIHYTALDGHLSRYQNPREADPMSKVQAELDETKIILHNTMESLLERGEKLDDLVSKSEVLGTQSKAFYKTARKQNSCCAIM	soluble
LNNRKQMAQQKFAFYEKSLPNKKRSFFEMKYYNDVTTPKIYRLTDQEMKLFDKLEA	not soluble
LQEVGSTFNIEVSILKDQATIMIDTTGSSLFKRGYRVQKGGAPIKENMAAAILALSNWFPDKPLVDPTCGSGTFCIEAAMIGMNIAPGFNRSFAFEEWSWVDKDMVQQVRDDAEQEANYEIELDISGFDIDGRMIEIAKSNAEEAGLSDVITFKQMRLQDFRTDKVNGVVISNPPYGERLLDDKAVDILYNEMGQTFAPLKTWSKFILTSDELFELKYGQKADKKRKLYNGTLKVDLYQFYGERVKRHLI	not soluble
LQFAYKDPEKNWNRNSVKGLVASLINVKDNSTATALEVVAGERLYNVVVDTEVTAKKLLEKGELKRRYTIIPLNKISARCIAPETLRVAQNLVGPDNVHVALSLVDYKPELQKGMEFVFGTTFVCNNMDNAKKVAFDKRIMTRTVTLGGDVFDPHGTLSGG	soluble
LQQFLDALASSPEKIEFETTMAVIEDNYDFTPAAFTNGNTQNDANENNGSCKIFAFGLLNALDKEATLACFGRFYREDVLLHPENNDHQNIRNFMVTGWEGIQFETSALTAK	not soluble
LQTVCLKGTKHMKCFLAFTQTKTFHEASEDCISRGGTLSTPQTGSENDALYEYLRQSVGNEAEIWLGLNKRWSRYFWVDMTGTRIAYKNWEHSSDAQPDPSNWENCAVLSGAANGKWFGKRCRDQLPYICQFGI	soluble
LSGSIYVLGGGENLKVTMMDAALKYAEANIPVIPLHWICEDGSCSCKTRSDCDSKGKHSLYTGWYNNSTTDVEQIRKWWTNVNVNKNLVLSKVS	not soluble
LSYPNATESVYGLTRYSTNDEAIAGVNNESSITPAKFTVALNNVFETRVSTESSNGVIKISSLPQALAGADDTTAMTPLKTQQLAVKLIAQIAPSKNAATESEQGVIQLATVAQARQGTLREGYAISPYTFMNSTATEEYKGVIKLGTQSEVNSNNASVAVTGATLNGRGSTTSMRGVVKLTTTAGSQSGGDASSALAWNADVIHQRGGQTINGTLRINNTLTIASGGANITGTVNMTGGYIQGKRVVTQNEIDRTIPVGAIMMWAADSLPSDAWRFCHGGTVSASDCPLYASRIGTRYGGSSSNPGLPDMR	soluble
LTFSLNFATSSKDSYGTGWLIDWKGDENKPSNTDPFLIYLATNLHVVDALRNPQDYEPYNKDSNGQDYGNRDITHFFALGKYTDPGLLGVETKE	soluble
LVQGPSLIGIHANEREDIETKKFVNWYLNTKVQWEENSIKTPAEYVADKASYLLPFKNRLNNTNSYNEFVKTAVSQFADKNVTKFAEPADFLSNKVRD	not soluble
LYRKGGVYVVIGGAGYIGEAWSEYMIRRYQAQIVWIGRSQLNAAIQSKIDRLSALGPEPFYIAADAADKHSLQQAYEQVKKRHPHIHGIVHSAMVLFEQSLEKMKPEEFTAGLAAKIDVSIRMAQVFRQENVDFVLFFSSLVAHIKNVKQSHYASGCTFADAFAHQLSQSWA	not soluble
LYWGDGQVWFDLPDKVTTHDSQLVGNLTELLKSVEHSFVLISPYFIPTEAGTKALTNAAKRGVDITIVTNSLASNDVFAVHGWYAKYREDLLESGIKLWEVKSSAKLKSKWSLTGSSRASLHAKAMTIDDKTLFVGSMNWDPRSAALNTEMAVVIEQPEYVQAFLAKLPSQLKDNAYRLTLRDGDIVWTNTKTGEEYDSEPEAGVFRRLGAWFSGILPIEDQL	not soluble
MAAAALRSGWCRCPRRCLGSGIQFLSSHNLPHGSTYQMRRPGGELPLSKSYSSGNRKGFLSGLLDNVKQELAKNKEMKESIKKFRDEARRLEESDVLQEARRKYKTIESETVRTSEVLRKKLGELTGTVKESLHEVSKSDLGRKIKEGVEEAAKTAKQSAESVSKGGEKLGRTAAFRALSQGVESVKKEIDDSVLGQTGPYRRPQRLRKRTEFAGDKFKEEKVFEPNEEALGVVLHKDSKWYQQWKDFKENNVVFNRFFEMKMKYDESDNAFIRASRALTDKVTDLLGGLFSKTEMSEVLTEILRVDPAFDKDRFLKQCENDIIPNVLEAMISGELDILKDWCYEATYSQLAHPIQQAKALGLQFHSRILDIDNVDLAMGKMVEQGPVLIITFQAQLVMVVRNPKGEVVEGDPDKVLRMLYVWALCRDQDELNPYAAWRLLDISASSTEQIL	soluble
MAAAGQEKGYLTQTAAALDKSPSLSPQLAAPIRGRPKKCLVYPHAPKSSRLSRSVLRWLQGLDLSFFPRDINRDFSNGFLIAEIFCIYYPWELELSSFENGTSLKVKLDNWAQLEKFLARKKFKLPKELIHGTIHCKAGVPEILIEEVYTLLTHREIKSIQDDFVNFTDYSYQMRLPLVSRSTVSKSIKDNIRLSELLSNPNMLTNELKAEFLILLHMLQRKLGRKLNPEWFDVKPTVGEVTLNHLPAQASGRRYNLKVKRGRVVPVLPNIGSGGSSHREIHVKQAGQHSYYSAMKPIRNMDKKP	soluble
MAAASAVSVLLVAAERNRWHRLPSLLLPPRTWVWRQRTMKYTTATGRNITKVLIANRGEIACRVMRTAKKLGVQTVAVYSEADRNSMHVDMADEAYSIGPAPSQQSYLSMEKIIQVAKTSAAQAIHPGCGFLSENMEFAELCKQEGIIFIGPPPSAIRDMGIKSTSKSIMAAAGVPVVEGYHGEDQSDQCLKEHARRIGYPVMIKAVRGGGGKGMRIVRSEQEFQEQLESAWREAKKSFNDDAMLIEKFVDTPRHVEVQVFGDHHGNAVYLFERDCSVQRRHQKIIEEAPAPGIKSEVRKKLGEAAVRAAKAVNYVGAGTVEFIMDSKHNFCFMEMNTRLQVEHPVTEMITGTDLVEWQLRIAAGEKIPLSQEEITLQGHAFEARIYAEDPSNNFMPVAGPLVHLSTPRADPSTRIETGVRQGDEVSVHYDPMIAKLVVWAADRQAALTKLRYSLRQYNIVGLPTNIDFLLNLSGHPEFEAGNVHTDFIPQHHKQLLLSRKAAAKESLCQAALGLILKEKAMTDTFTLQAHDQFSPFSSSSGRRLNISYTRNMTLKDGKNNVAIAVTYNHDGSYSMQIEDKTFQVLGNLYSEGDCTYLKCSVNGVASKAKLIILENTIYLFSKEGSIEIDIPVPKYLSSVSSQETQGGPLAPMTGTIEKVFVKAGDKVKAGDSLMVMIAMKMEHTIKSPKDGTVKKVFYREGAQANRHTPLVEFEEEESDKRESE	soluble
MAAEDELQLPRLPELFETGRQLLDEVEVATEPAGSRIVQEKVFKGLDLLEKAAEMLSQLDLFSRNEDLEEIASTDLKYLLVPAFQGALTMKQVNPSKRLDHLQRAREHFINYLTQCHCYHVAEFELPKTMNNSAENHTANSSMAYPSLVAMASQRQAKIQRYKQKKELEHRLSAMKSAVESGQADDERVREYYLLHLQRWIDISLEEIESIDQEIKILRERDSSREASTSNSSRQERPPVKPFILTRNMAQAKVFGAGYPSLPTMTVSDWYEQHRKYGALPDQGIAKAAPEEFRKAAQQQEEQEEKEEEDDEQTLHRAREWDDWKDTHPRGYGNRQNMGLEHHHHHH	soluble
MAAERVFISPAKYVQGKNVITKIANYLEGIGNKTVVIADEIVWKIAGHTIVNELKKGNIAAEEVVFSGEASRNEVERIANIARKAEAAIVIGVGGGKTLDTAKAVADELDAYIVIVPTAASTDAPTSALSVIYSDDGVFESYRFYKKNPDLVLVDTKIIANAPPRLLASGIADALATWVEARSVIKSGGKTMAGGIPTIAAEAIAEKCEQTLFKYGKLAYESVKAKVVTPALEAVVEANTLLSGLGFESGGLAAAHAIHNGFTALEGEIHHLTHGEKVAFGTLVQLALEEHSQQEIERYIELYLCLDLPVTLEDIKLKDASREDILKVAKAATAEGETIHNAFNVTADDVADAIFAADQYAKAYKEKHRK	soluble
MAAHSSAGLLDYVFPTIVSEYYNQAPTKEGYRFASEEPNGSKREEMGVIMNPGTPDEQLVVMGMYSSYDEKTDTETVTMYTADKDGYKARYQIKNRKLSPGALKSAAGLEHHHHHH	not soluble
MAAKKRGLGRGLDALLGGSSPAKLQEEAVQADRRELQQIPLDLMQRGKYQPRRDMDPQALEELAQSIKAQGVMQPIVVRPIANGRYEIIAGERRWRASQQAGLEKIPALVRDVPDEAAIAMALIENIQREDLNPIEEAAALQRLQQEFQLTQQQVAEAVGKSRATITNLLRLIGLPEEIKTLLSHGDLEMGHARALLGLPAERQVEGARHVVAHGLTVRQTEALVRQWTHAPGKPAGPVKSDPDIARLEQRLAERLGASVQIRHGQKGKGQLVIRYSSLDELQGVLAHIR	not soluble
MAANSTRRPIIAFMSDLGTTDDSVAQCKGLMYSICPDVTVVDVCHSMTPWDVEEGARYIVDLPRFFPEGTVFATTTYPATGTTTRSVAVRIKQAAKGGARGQWAGSGAGFERAEGSYIYIAPNNGLLTTVLEEHGYLEAYEVTSPKVIPEQPEPTFYAREMVAIPSAHLAAGFPLSEVGRPLEDHEIVRFNRPAVEQDGEALVGVVSAIDHPFGNVWTNIHRTDLEKAGIGYGARLRLTLDGVLPFEAPLTPTFADAGEIGNIAIYLNSRGYLSIARNAASLAYPYHLKEGMSARVEAR	soluble
MAATSGTDEPVSGELVSVAHALSLPAESYGNDPDIEMAWAMRAMQHAEVYYKLISSVDPQFLKLTKVDDQIYSEFRKNFETLRIDVLDPEELKSESAKEKWRPFCLKFNGIVEDFNYGTLLRLDCSQGYTEENTIFAPRIQFFAIEIARNREGYNKAVYISVQDKEGEKGVNNGGEKRADSGEEENTKNGGEKGADSGEEKEEGINREDKTDKGGEKGKEADKEINKSGEKAM	soluble
MAATVVIVAWIANRPPASSHEPSPTPNTQLAEQPLIGLGGGVTVRELTQDTPFSLVALTGDLAGTSARVRAKRPDGDWGPWYQTEYETEPRDPAGTDGSVELGGLNPGPRSTDPVFVGTTTTVQVAVTRPIDAPITQPPAGRPPNDLLDSGLGYRPATKEQPFGQNISAILISPPQAPPGTQWTPPTAVTMAGQPPAIISRAEWGADESLRCETPEYDRGVRAAVVHHTAGSNDYSPLESAGIVKAIYTYHSKTLGWCDIAYNALVDKYGQVFEGSAGGLTKPVEGFHTGGFNRNTWGVAMIGNFDDVAPTPIQIRTVGRLLGWRLGMDDVDPRSMVDLQSAGSSYTTFPGGAIARLPAIFTHRDVGNTDCPGNAAYAVMDEIRDIAAHFNDPPEELIKALEGGAIYQRWQALGGMNSALGAPTSPEADAADGARYATFAKGAMYWSPVTDAQPITGAIYEAWASQSYERGPLGLPTSAEIQEPLQITQNFQHGTLNFERLTGNVTEVVDGITTPLATRPPSGPTVPPEHFTLPTHPIT	soluble
MAAVKDSCGKGEMATGNGRRLHLGIPEAVFVEDVDSFMKQPGNETADTVLKKLDEQYQKYKFMELNLAQKKRRLKGQIPEIKQTLEILKYMQKKKESTNSMETRFLLADNLYCKASVPPTDKVCLWLGANVMLEYDIDEAQALLEKNLSTATKNLDSLEEDLDFLRDQFTTTEVNMARVYNWDVKRRNKDDSTKNKA	not soluble
